Experimental data taken from the supplement of paper PMC9112550, “Optimization of the antimicrobial peptide Bac7 by deep mutational scanning” (BMC Biology, 2022).

tested on: Escherichia coli TOP10; test: shrunken log2 fold change of peptide-encoding DNA abundance (4.5 h post-induction vs induction); higher = less antimicrobial activity (less host growth inhibition); settings: time post-induction: 4.5 h; library: site-saturation at positions 5, 18, 19, 20
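Note: peptides expressed intracellularly from a pBAD plasmid library in pooled LB shake-flask culture, induced with 0.3% L-arabinose, DNA abundance read by NGS, three biological replicates, DESeq2 with apeglm shrinkage.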

In order of rising “shrunken log2 fold change” value:
1. RRIRCRPPRLPRPRPRPCLLPRP  -1.45
2. RRIRCRPPRLPRPRPRPDHKPRP  -1.04
3. RRIRCRPPRLPRPRPRPHHTPRP  -1.04
4. RRIRCRPPRLPRPRPRPHVYPRP  -0.899
5. RRIRCRPPRLPRPRPRPCTFPRP  -0.856
6. RRIRCRPPRLPRPRPRPHIQPRP  -0.73
7. RRIRCRPPRLPRPRPRPHITPRP  -0.704
8. RRIRCRPPRLPRPRPRPHFTPRP  -0.677
9. RRIRCRPPRLPRPRPRPDNNPRP  -0.661
10. RRIRCRPPRLPRPRPRPFNWPRP  -0.648
11. RRIRCRPPRLPRPRPRPGNQPRP  -0.644
12. RRIRCRPPRLPRPRPRPHKDPRP  -0.636
13. RRIRCRPPRLPRPRPRPFVVPRP  -0.633
14. RRIRCRPPRLPRPRPRPHLHPRP  -0.626
15. RRIRCRPPRLPRPRPRPHVDPRP  -0.617
16. RRIRCRPPRLPRPRPRPHIWPRP  -0.6
17. RRIRCRPPRLPRPRPRPHISPRP  -0.535
18. RRIRCRPPRLPRPRPRPCPIPRP  -0.52
19. RRIRCRPPRLPRPRPRPFMVPRP  -0.502
20. RRIRCRPPRLPRPRPRPGCYPRP  -0.501
21. RRIRCRPPRLPRPRPRPHINPRP  -0.501
22. RRIRCRPPRLPRPRPRPHSLPRP  -0.493
23. RRIRCRPPRLPRPRPRPCTHPRP  -0.48
24. RRIRCRPPRLPRPRPRPFKTPRP  -0.478
25. RRIRCRPPRLPRPRPRPFADPRP  -0.45
26. RRIRCRPPRLPRPRPRPHAKPRP  -0.446
27. RRIRCRPPRLPRPRPRPFDNPRP  -0.437
28. RRIRCRPPRLPRPRPRPFCNPRP  -0.428
29. RRIRCRPPRLPRPRPRPCLIPRP  -0.404
30. RRIRCRPPRLPRPRPRPDLLPRP  -0.393
31. RRIRCRPPRLPRPRPRPDCKPRP  -0.392
32. RRIRCRPPRLPRPRPRPHTRPRP  -0.372
33. RRIRCRPPRLPRPRPRPHVSPRP  -0.37
34. RRIRCRPPRLPRPRPRPFMDPRP  -0.361
35. RRIRCRPPRLPRPRPRPHCKPRP  -0.348
36. RRIRCRPPRLPRPRPRPHTGPRP  -0.341
37. RRIRCRPPRLPRPRPRPESYPRP  -0.336
38. RRIRCRPPRLPRPRPRPFALPRP  -0.33
39. RRIRCRPPRLPRPRPRPFVGPRP  -0.315
40. RRIRCRPPRLPRPRPRPHFYPRP  -0.305
41. RRIRCRPPRLPRPRPRPHECPRP  -0.3
42. RRIRCRPPRLPRPRPRPHRDPRP  -0.3
43. RRIRCRPPRLPRPRPRPHQVPRP  -0.288
44. RRIRCRPPRLPRPRPRPDSYPRP  -0.286
45. RRIRCRPPRLPRPRPRPFRAPRP  -0.277
46. RRIRCRPPRLPRPRPRPFYGPRP  -0.262
47. RRIRCRPPRLPRPRPRPHHGPRP  -0.261
48. RRIRCRPPRLPRPRPRPDQRPRP  -0.254
49. RRIRCRPPRLPRPRPRPGWYPRP  -0.244
50. RRIRCRPPRLPRPRPRPECYPRP  -0.238
51. RRIRCRPPRLPRPRPRPFSVPRP  -0.236
52. RRIRCRPPRLPRPRPRPDSTPRP  -0.235
53. RRIRCRPPRLPRPRPRPFIGPRP  -0.228
54. RRIRCRPPRLPRPRPRPHASPRP  -0.224
55. RRIRCRPPRLPRPRPRPHLMPRP  -0.223
56. RRIRCRPPRLPRPRPRPDICPRP  -0.22
57. RRIRCRPPRLPRPRPRPCKKPRP  -0.205
58. RRIRCRPPRLPRPRPRPDSHPRP  -0.199
59. RRIRCRPPRLPRPRPRPDQWPRP  -0.197
60. RRIRCRPPRLPRPRPRPCRHPRP  -0.196
61. RRIRCRPPRLPRPRPRPFHWPRP  -0.195
62. RRIRCRPPRLPRPRPRPHMEPRP  -0.194
63. RRIRCRPPRLPRPRPRPDPFPRP  -0.187
64. RRIRCRPPRLPRPRPRPDAYPRP  -0.177
65. RRIRCRPPRLPRPRPRPCWHPRP  -0.169
66. RRIRCRPPRLPRPRPRPGNEPRP  -0.154
67. RRIRCRPPRLPRPRPRPFMAPRP  -0.15
68. RRIRCRPPRLPRPRPRPCNWPRP  -0.141
69. RRIRCRPPRLPRPRPRPHRCPRP  -0.128
70. RRIRCRPPRLPRPRPRPEIRPRP  -0.123
71. RRIRCRPPRLPRPRPRPHLCPRP  -0.111
72. RRIRCRPPRLPRPRPRPCRWPRP  -0.103
73. RRIRCRPPRLPRPRPRPEFLPRP  -0.091
74. RRIRCRPPRLPRPRPRPDIVPRP  -0.0875
75. RRIRCRPPRLPRPRPRPDVGPRP  -0.0874
76. RRIRCRPPRLPRPRPRPDAHPRP  -0.0835
77. RRIRCRPPRLPRPRPRPDIEPRP  -0.0833
78. RRIRCRPPRLPRPRPRPEMVPRP  -0.0828
79. RRIRCRPPRLPRPRPRPHDCPRP  -0.0825
80. RRIRCRPPRLPRPRPRPEMLPRP  -0.077
81. RRIRCRPPRLPRPRPRPFDWPRP  -0.0737
82. RRIRCRPPRLPRPRPRPGVYPRP  -0.0723
83. RRIRCRPPRLPRPRPRPGWCPRP  -0.0717
84. RRIRCRPPRLPRPRPRPHRFPRP  -0.0713
85. RRIRCRPPRLPRPRPRPFELPRP  -0.0697
86. RRIRCRPPRLPRPRPRPFRNPRP  -0.0491
87. RRIRCRPPRLPRPRPRPHCRPRP  -0.0478
88. RRIRCRPPRLPRPRPRPFWAPRP  -0.0403
89. RRIRCRPPRLPRPRPRPFRKPRP  -0.0377
90. RRIRCRPPRLPRPRPRPGGKPRP  -0.0361
91. RRIRCRPPRLPRPRPRPHETPRP  -0.035
92. RRIRCRPPRLPRPRPRPCKTPRP  -0.0345
93. RRIRCRPPRLPRPRPRPGGTPRP  -0.0298
94. RRIRCRPPRLPRPRPRPGVIPRP  -0.0294
95. RRIRCRPPRLPRPRPRPEPCPRP  -0.0257
96. RRIRCRPPRLPRPRPRPHDFPRP  -0.0215
97. RRIRCRPPRLPRPRPRPCLEPRP  -0.0191
98. RRIRCRPPRLPRPRPRPDAIPRP  -0.0147
99. RRIRCRPPRLPRPRPRPEDRPRP  -0.0137
100. RRIRCRPPRLPRPRPRPCWQPRP  -0.0116
101. RRIRCRPPRLPRPRPRPGYPPRP  -0.00859
102. RRIRCRPPRLPRPRPRPFGDPRP  -0.00748
103. RRIRCRPPRLPRPRPRPFCAPRP  -0.00432
104. RRIRCRPPRLPRPRPRPGCMPRP  0.00195
105. RRIRCRPPRLPRPRPRPGQHPRP  0.00766
106. RRIRCRPPRLPRPRPRPESHPRP  0.0129
107. RRIRCRPPRLPRPRPRPDVYPRP  0.0165
108. RRIRCRPPRLPRPRPRPGHWPRP  0.0171
109. RRIRCRPPRLPRPRPRPETCPRP  0.0181
110. RRIRCRPPRLPRPRPRPHGAPRP  0.0255
111. RRIRCRPPRLPRPRPRPCSWPRP  0.0276
112. RRIRCRPPRLPRPRPRPHTPPRP  0.0337
113. RRIRCRPPRLPRPRPRPGVEPRP  0.0401
114. RRIRCRPPRLPRPRPRPHDQPRP  0.0433
115. RRIRCRPPRLPRPRPRPFMRPRP  0.0501
116. RRIRCRPPRLPRPRPRPGMKPRP  0.062
117. RRIRCRPPRLPRPRPRPGIDPRP  0.0673
118. RRIRCRPPRLPRPRPRPHAQPRP  0.0778
119. RRIRCRPPRLPRPRPRPFWRPRP  0.0785
120. RRIRCRPPRLPRPRPRPGKTPRP  0.102
121. RRIRCRPPRLPRPRPRPEFVPRP  0.105
122. RRIRCRPPRLPRPRPRPEREPRP  0.108
123. RRIRCRPPRLPRPRPRPDIWPRP  0.116
124. RRIRCRPPRLPRPRPRPDEKPRP  0.118
125. RRIRCRPPRLPRPRPRPEKPPRP  0.118
126. RRIRCRPPRLPRPRPRPEYQPRP  0.123
127. RRIRCRPPRLPRPRPRPHRVPRP  0.135
128. RRIRCRPPRLPRPRPRPGLRPRP  0.147
129. RRIRCRPPRLPRPRPRPGGCPRP  0.153
130. RRIRCRPPRLPRPRPRPFWPPRP  0.161
131. RRIRCRPPRLPRPRPRPEDCPRP  0.173
132. RRIRCRPPRLPRPRPRPGECPRP  0.198
133. RRIRCRPPRLPRPRPRPGLEPRP  0.203
134. RRIRCRPPRLPRPRPRPGPVPRP  0.239
135. RRIRCRPPRLPRPRPRPDWCPRP  0.27
136. RRIRCRPPRLPRPRPRPESRPRP  0.276
137. RRIRCRPPRLPRPRPRPGRVPRP  0.288
138. RRIRCRPPRLPRPRPRPECPPRP  0.293
139. RRIRCRPPRLPRPRPRPEGKPRP  0.31
140. RRIRCRPPRLPRPRPRPGVRPRP  0.32
141. RRIRCRPPRLPRPRPRPEAVPRP  0.383
142. RRIRCRPPRLPRPRPRPGRAPRP  0.453
143. RRIRCRPPRLPRPRPRPGFRPRP  0.498
144. RRIRCRPPRLPRPRPRPELSPRP  0.52
145. RRIRCRPPRLPRPRPRPGLAPRP  0.544
146. RRIRCRPPRLPRPRPRPECWPRP  0.669
147. RRIRCRPPRLPRPRPRPESAPRP  0.703
148. RRIRCRPPRLPRPRPRPGWLPRP  0.801
149. RRIRCRPPRLPRPRPRPGTTPRP  0.844
150. RRIRCRPPRLPRPRPRPCWWPRP  0.904
